Results taken from patent US7611713.
Like-named read-outs stand apart in the source and are kept apart here.

How the values were obtained:
[1] = target: HLA-A*1101 (human)
[2] = target: HLA-A*3101 (human)
[3] = target: HLA-A*3301 (human)
[4] = target: HLA-A*6801 (human)
[5] = target: HLA-A*0301 (human)
[6] = target: HLA-DR1 (DRB1*0101) (human); test: competition with standard peptide for purified HLA-DR, relative to standard
[7] = target: HLA-DR4w4 (DRB1*0401) (human); test: as above
[8] = target: HLA-DR5w11 (DRB1*1101) (human); test: as above
[9] = target: HLA-DR7 (DRB1*0701) (human); test: as above
[10] = target: HLA-B*0701 (as printed in the head of Table XXII) (human); test: competitive inhibition of radiolabeled standard peptide binding to purified HLA
[11] = target: HLA-DRw53 (DRB4*0101) (human); test: competition with standard peptide for purified HLA-DR, relative to standard
[12] = target: HLA-A*0201 (human)
[13] = target: HLA-B*0702 (human); test: competition with radiolabeled standard peptide for purified HLA, gel filtration
[14] = target: HLA-B*5101 (human); test: as above; conditions: remark: other sources report otherwise
[15] = target: HLA-B*5401 (human); test: as above; conditions: remark: other sources report otherwise
[16] = target: HLA-DR1 (DRB1*0101) (human); test: HLA class II peptide binding assay, ratio to standard peptide; conditions: remark: other sources report otherwise
[17] = target: HLA-DR4w4 (DRB1*0401) (human); test: as above; conditions: remark: other sources report otherwise
[18] = target: HLA-DR5w11 (DRB1*1101) (human); test: as above; conditions: remark: other sources report otherwise
[19] = target: HLA-DR7 (DRB1*0701) (human); test: as above; conditions: remark: other sources report otherwise
[20] = target: HLA-A*0201 (human); test: competitive inhibition of radiolabeled standard peptide binding to purified HLA
[21] = target: HLA-DR2w2β1 (DRB1*1501) (human)
[22] = target: HLA-DR7 (DRB1*0701) (human)
[23] = target: HLA-DR2w2β2 (DRB5*0101) (human)
[24] = target: HLA-DR5w11 (DRB1*1101) (human)
[25] = target: HLA-DR6w19 (DRB1*1302) (human)
[26] = target: HLA-DR2w2β1 (DRB1*1501) (human); test: HLA class II peptide binding assay, ratio to standard peptide
[27] = target: HLA-DR3 (DRB1*0301) (human); test: as above; conditions: remark: other sources report otherwise
[28] = target: HLA-DR4w15 (DRB1*0405) (human); test: as above; conditions: remark: other sources report otherwise
[29] = target: HLA-DR6w19 (DRB1*1302) (human); test: as above; conditions: remark: other sources report otherwise
[30] = target: HLA-DR1 (DRB1*0101) (human)
[31] = target: HLA-A*1101 (human); remark: listed apart in the source
[32] = remark: other sources report otherwise

Binder: TTVVRRRGR (modifications not checked) [HBV NUC 175 peptide …]
- binding affinity ratio (IC50 of standard peptide / IC50 of test peptide) [1]: 0.0005
- binding affinity ratio (IC50 of standard peptide / IC50 of test peptide) [2]: 0.25
- binding affinity ratio (IC50 of standard peptide / IC50 of test peptide) [3]: 0.14
- binding affinity ratio (IC50 of standard peptide / IC50 of test peptide) [4]: 0.0095

Binder: LLDTASALYR (modifications not checked) [HBV NUC 30 peptide …]
- binding affinity ratio (IC50 of standard peptide / IC50 of test peptide) [5]: 0.005

Binder: ILRGTSFVY (modifications not checked) [HBV POL 771 peptide …]
- binding affinity ratio (IC50 of standard peptide / IC50 of test peptide) [5, 32]: 0.044

Binder: AEDLNLGNLNVSIPW (modifications not checked)
- binding affinity ratio (IC50 of standard peptide / IC50 of test peptide) [6]: 0.0001
- binding affinity ratio (IC50 of standard peptide / IC50 of test peptide) [7]: -0.0007
- binding affinity ratio (IC50 of standard peptide / IC50 of test peptide) [8]: -0.0002
- binding affinity ratio (IC50 of standard peptide / IC50 of test peptide) [9]: -0.0003

Binder: MPKAGLLII (modifications not checked) [MAGE3 196]
- IC50 [10]: 940 nM

Binder: ASKLCLGWLWGMDID (modifications not checked)
- binding affinity ratio (IC50 of standard peptide / IC50 of test peptide) [6]: 0.0002
- binding affinity ratio (IC50 of standard peptide / IC50 of test peptide) [8]: -0.0002
- binding affinity ratio (IC50 of standard peptide / IC50 of test peptide) [11]: 0.001

Binder: VLGGCRHK (modifications not checked) [HBV X 133 peptide VLGGCRHK]
- binding affinity ratio (IC50 of standard peptide / IC50 of test peptide) [2]: -0.0005
- binding affinity ratio (IC50 of standard peptide / IC50 of test peptide) [3]: -0.0009

Binder: RVTGGVFLV (modifications not checked) [HBV POL 357 peptide …]
- binding affinity ratio (IC50 of standard peptide / IC50 of test peptide) [12, 32]: 0.0041

Binder: VPNLQSLTNL (modifications not checked) [HBV POL 398 peptide …]
- binding affinity ratio (IC50 of standard peptide / IC50 of test peptide) [13]: 0.0006

Binder: WPKFAVPNL (modifications not checked) [HBV POL 393 peptide …]
- binding affinity ratio (IC50 of standard peptide / IC50 of test peptide) [13, 32]: 0.0054
- binding affinity ratio (IC50 of standard peptide / IC50 of test peptide) [14]: 0.0016
- binding affinity ratio (IC50 of standard peptide / IC50 of test peptide) [15]: 0.0015

Binder: LLGCAANWI (modifications not checked) [HBV POL 752 peptide …]
- binding affinity ratio (relative to standard peptide) [12]: 0.0011

Binder: NAPILSTLPETTVVR (modifications not checked)
- binding affinity ratio (IC50 of standard peptide / IC50 of test peptide) [16]: 0.0009
- binding affinity ratio (IC50 of standard peptide / IC50 of test peptide) [17]: -0.0007
- binding affinity ratio (IC50 of standard peptide / IC50 of test peptide) [18]: -0.0002
- binding affinity ratio (IC50 of standard peptide / IC50 of test peptide) [19]: 0.0005

Binder: LSFLPSDFF (modifications not checked) [HBV NUC 45 peptide …]
- binding affinity ratio (IC50 of standard peptide / IC50 of test peptide) [5]: 0.0006

Binder: DLNLGNLNVSIPWTH (modifications not checked)
- binding affinity ratio (IC50 of standard peptide / IC50 of test peptide) [9]: 0.001

Binder: PLPIHTAELLAACFA (modifications not checked)
- binding affinity ratio (IC50 of standard peptide / IC50 of test peptide) [16]: 0.0046
- binding affinity ratio (IC50 of standard peptide / IC50 of test peptide) [19]: -0.0003

Binder: YVPSALNPA (modifications not checked) [HBV POL 768 peptide …]
- binding affinity ratio (IC50 of standard peptide / IC50 of test peptide) [20]: 0.0039

Binder: VGNFTGLYSSTVPVF (modifications not checked)
- binding affinity ratio (IC50 of standard peptide / IC50 of test peptide) [21]: 0.01
- binding affinity ratio (IC50 of standard peptide / IC50 of test peptide) [22, 32]: 0.56

Binder: IVGLLGFAAPFTQCG (modifications not checked)
- binding affinity ratio (IC50 of standard peptide / IC50 of test peptide) [6]: 0.02
- binding affinity ratio (IC50 of standard peptide / IC50 of test peptide) [7]: -0.0007
- binding affinity ratio (IC50 of standard peptide / IC50 of test peptide) [8]: -0.0002
- binding affinity ratio (IC50 of standard peptide / IC50 of test peptide) [9]: 0.0009

Binder: DSWWTSLNF (modifications not checked) [HBV ENV 207 … (peptide 20.0120)]
- binding affinity ratio [5]: 0.0006

Binder: VGLLGFAAPFTQCGY (modifications not checked)
- binding affinity ratio (IC50 of standard peptide / IC50 of test peptide) [23]: 0.0008
- binding affinity ratio (IC50 of standard peptide / IC50 of test peptide) [24]: -0.0004
- binding affinity ratio (IC50 of standard peptide / IC50 of test peptide) [25]: -0.0001

Binder: HLNPNKTKR (modifications not checked) [HBV POL 569 peptide …]
- binding affinity ratio (IC50 of standard peptide / IC50 of test peptide) [5]: 0.0025

Binder: SVRFSWLSLL (modifications not checked) [HBV ENV 330 peptide …]
- binding affinity ratio (IC50 of standard peptide / IC50 of test peptide) [12]: 0.0004

Binder: LAQFTSAICSVVRRA (modifications not checked)
- binding affinity ratio (IC50 of standard peptide / IC50 of test peptide) [26]: 0.0065
- binding affinity ratio (IC50 of standard peptide / IC50 of test peptide) [27]: -0.0009
- binding affinity ratio (IC50 of standard peptide / IC50 of test peptide) [28]: 0.028
- binding affinity ratio (IC50 of standard peptide / IC50 of test peptide) [18]: 0.0076
- binding affinity ratio (IC50 of standard peptide / IC50 of test peptide) [29]: 0.001
- binding affinity ratio (IC50 of standard peptide / IC50 of test peptide) [19]: 0.028

Binder: LLVLQAGFF (modifications not checked) [HBV ENV 175 peptide …]
- binding affinity ratio (IC50 of standard peptide / IC50 of test peptide) [5]: 0.0006

Binder: STLPETTVV (modifications not checked) [HBV NUC 141 peptide …]
- binding affinity ratio (IC50 of standard peptide / IC50 of test peptide) [12]: 0.0019

Binder: SLNFMGYVI (modifications not checked) [HBV POL 581 peptide …]
- binding affinity ratio (IC50 of standard peptide / IC50 of test peptide) [12]: 0.0038

Binder: WPKFAVPNLQSLTNL (modifications not checked)
- binding affinity ratio (IC50 of standard peptide / IC50 of test peptide) [30]: 0.0007
- binding affinity ratio (IC50 of standard peptide / IC50 of test peptide) [24]: 0.0002
- binding affinity ratio (IC50 of standard peptide / IC50 of test peptide) [22]: 0.0008

Binder: LDTASALYR (modifications not checked) [HBV NUC 60 peptide …]
- binding affinity ratio (IC50 of standard peptide / IC50 of test peptide) [31]: -0.0002

Binder: RDLLDTASALYREAL (modifications not checked)
- binding affinity ratio (IC50 of standard peptide / IC50 of test peptide) [30, 32]: 0.0001
- binding affinity ratio (IC50 of standard peptide / IC50 of test peptide) [22, 32]: 0.077

Binder: QLLWFHISCL (modifications not checked) [HBV NUC 99 peptide … (peptide 1142.03)]
- binding affinity ratio (IC50 of standard peptide / IC50 of test peptide) [12]: 0.006

Binder: LIFLLVLL (modifications not checked) [HBV ENV 254 peptide LIFLLVLL]
- binding affinity ratio (relative to standard peptide) [12]: 0.0025

Binder: LLDYQGML (modifications not checked) [HBV ENV 260 peptide LLDYQGML]
- binding affinity ratio (relative to standard peptide) [12]: 0.0004

Binder: KAGILYKR (modifications not checked) [HBV POL 153 peptide KAGILYKR]
- binding affinity ratio (IC50 of standard peptide / IC50 of test peptide) [31]: -0.0002
